Experimental data as given in PMC8345109, “Optimization of New Catalytic Topoisomerase II Inhibitors as an Anti-Cancer Therapy” (Cancers, 2021).

What was measured:
TOP2A(431-1193) = TOP2A(431-1193) (Homo sapiens, UniProt P11388 431-1193); experiment: EMSA; merbarone; FP: 20 mM HEPES-NaOH pH 7.4, 2 mM DTT, 3 mM MgCl2, 0.05% NP-40, protease inhibitors, room temperature 20 min; EMSA buffer not in material; settings: protein: recombinant; tags: N-terminal 6xHis (pET28a); label: IRDye700 (printed IRDay700); blunt; self-complementary 20-mer, 2 copies
TOP2A full-length = TOP2A full-length (Homo sapiens, UniProt P11388 1-1531); experiment: EMSA; 200 uM ICRF193; FP: 20 mM HEPES-NaOH pH 7.4, 2 mM DTT, 3 mM MgCl2, 0.05% NP-40, protease inhibitors, room temperature 20 min; EMSA buffer not in material; settings: protein: recombinant; label: IRDye700 (printed IRDay700); blunt; self-complementary 20-mer, 2 copies
TOP2B full-length = TOP2B full-length (Homo sapiens, UniProt Q02880 1-1626); experiment: as above; settings: protein: recombinant; label: IRDye700 (printed IRDay700); blunt; self-complementary 20-mer, 2 copies

Measured: binding result

Sequence of TOP2B full-length (Q02880 whole entry): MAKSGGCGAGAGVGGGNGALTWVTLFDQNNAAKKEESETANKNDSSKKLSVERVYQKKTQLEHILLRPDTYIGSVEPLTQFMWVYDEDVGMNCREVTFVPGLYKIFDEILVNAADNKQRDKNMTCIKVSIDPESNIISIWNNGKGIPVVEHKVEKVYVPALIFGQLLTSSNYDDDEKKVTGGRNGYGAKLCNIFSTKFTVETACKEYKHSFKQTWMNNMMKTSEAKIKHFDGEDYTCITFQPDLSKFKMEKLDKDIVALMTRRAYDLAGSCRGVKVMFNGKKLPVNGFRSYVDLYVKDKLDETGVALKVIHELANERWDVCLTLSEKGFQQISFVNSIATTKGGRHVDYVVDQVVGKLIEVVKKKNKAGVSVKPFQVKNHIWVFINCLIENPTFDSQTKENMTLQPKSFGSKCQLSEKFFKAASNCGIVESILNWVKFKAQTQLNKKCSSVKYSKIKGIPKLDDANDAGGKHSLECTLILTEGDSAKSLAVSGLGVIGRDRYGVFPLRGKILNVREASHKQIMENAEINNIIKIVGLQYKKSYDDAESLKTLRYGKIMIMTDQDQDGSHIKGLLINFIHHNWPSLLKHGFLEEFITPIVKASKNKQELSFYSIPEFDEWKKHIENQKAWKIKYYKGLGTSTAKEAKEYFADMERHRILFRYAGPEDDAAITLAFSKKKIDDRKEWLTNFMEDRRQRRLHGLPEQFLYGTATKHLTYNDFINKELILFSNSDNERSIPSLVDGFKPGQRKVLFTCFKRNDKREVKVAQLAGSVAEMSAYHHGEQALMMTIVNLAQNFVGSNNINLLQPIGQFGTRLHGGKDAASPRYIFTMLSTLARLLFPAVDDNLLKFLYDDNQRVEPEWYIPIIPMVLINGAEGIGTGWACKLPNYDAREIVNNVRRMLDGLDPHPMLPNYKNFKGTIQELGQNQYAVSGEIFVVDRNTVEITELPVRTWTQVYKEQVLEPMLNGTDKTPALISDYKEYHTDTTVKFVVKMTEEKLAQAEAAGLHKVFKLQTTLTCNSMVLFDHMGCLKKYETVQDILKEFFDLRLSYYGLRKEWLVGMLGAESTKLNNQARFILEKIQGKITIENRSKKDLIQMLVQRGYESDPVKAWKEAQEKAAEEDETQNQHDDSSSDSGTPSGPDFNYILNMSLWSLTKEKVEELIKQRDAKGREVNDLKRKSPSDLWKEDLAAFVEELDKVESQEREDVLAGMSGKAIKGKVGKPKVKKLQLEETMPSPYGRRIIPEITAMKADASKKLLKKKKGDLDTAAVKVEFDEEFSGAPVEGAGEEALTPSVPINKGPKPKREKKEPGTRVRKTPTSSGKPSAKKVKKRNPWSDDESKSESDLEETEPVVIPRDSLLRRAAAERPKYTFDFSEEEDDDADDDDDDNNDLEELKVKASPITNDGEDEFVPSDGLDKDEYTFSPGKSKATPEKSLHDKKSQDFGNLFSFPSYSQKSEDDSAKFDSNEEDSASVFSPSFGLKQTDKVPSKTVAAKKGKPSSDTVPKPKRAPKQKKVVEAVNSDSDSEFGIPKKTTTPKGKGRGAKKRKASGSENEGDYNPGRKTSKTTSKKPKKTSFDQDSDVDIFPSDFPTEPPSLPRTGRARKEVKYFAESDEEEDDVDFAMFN
Sequence of TOP2A(431-1193) (P11388 431-1193): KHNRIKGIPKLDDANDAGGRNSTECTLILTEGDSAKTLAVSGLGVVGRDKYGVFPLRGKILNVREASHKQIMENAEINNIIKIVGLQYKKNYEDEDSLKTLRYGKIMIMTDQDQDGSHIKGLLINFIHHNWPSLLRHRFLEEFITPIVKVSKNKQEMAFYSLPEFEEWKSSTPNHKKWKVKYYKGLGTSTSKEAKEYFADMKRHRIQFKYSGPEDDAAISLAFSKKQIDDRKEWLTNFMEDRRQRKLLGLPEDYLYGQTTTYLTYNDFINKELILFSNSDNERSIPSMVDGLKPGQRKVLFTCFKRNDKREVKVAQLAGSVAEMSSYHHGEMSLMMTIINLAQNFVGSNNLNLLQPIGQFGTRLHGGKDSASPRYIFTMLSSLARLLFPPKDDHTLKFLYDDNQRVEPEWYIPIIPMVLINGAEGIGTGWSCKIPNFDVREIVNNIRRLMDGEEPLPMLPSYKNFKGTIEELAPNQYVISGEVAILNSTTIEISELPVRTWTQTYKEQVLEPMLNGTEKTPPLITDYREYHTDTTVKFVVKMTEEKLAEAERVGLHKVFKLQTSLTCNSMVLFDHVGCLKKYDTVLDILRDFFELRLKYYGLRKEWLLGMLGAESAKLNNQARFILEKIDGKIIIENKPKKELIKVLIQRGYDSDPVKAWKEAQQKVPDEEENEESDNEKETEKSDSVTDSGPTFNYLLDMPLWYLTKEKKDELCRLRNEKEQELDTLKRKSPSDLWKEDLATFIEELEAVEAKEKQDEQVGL
Sequence of TOP2A full-length (P11388 whole entry): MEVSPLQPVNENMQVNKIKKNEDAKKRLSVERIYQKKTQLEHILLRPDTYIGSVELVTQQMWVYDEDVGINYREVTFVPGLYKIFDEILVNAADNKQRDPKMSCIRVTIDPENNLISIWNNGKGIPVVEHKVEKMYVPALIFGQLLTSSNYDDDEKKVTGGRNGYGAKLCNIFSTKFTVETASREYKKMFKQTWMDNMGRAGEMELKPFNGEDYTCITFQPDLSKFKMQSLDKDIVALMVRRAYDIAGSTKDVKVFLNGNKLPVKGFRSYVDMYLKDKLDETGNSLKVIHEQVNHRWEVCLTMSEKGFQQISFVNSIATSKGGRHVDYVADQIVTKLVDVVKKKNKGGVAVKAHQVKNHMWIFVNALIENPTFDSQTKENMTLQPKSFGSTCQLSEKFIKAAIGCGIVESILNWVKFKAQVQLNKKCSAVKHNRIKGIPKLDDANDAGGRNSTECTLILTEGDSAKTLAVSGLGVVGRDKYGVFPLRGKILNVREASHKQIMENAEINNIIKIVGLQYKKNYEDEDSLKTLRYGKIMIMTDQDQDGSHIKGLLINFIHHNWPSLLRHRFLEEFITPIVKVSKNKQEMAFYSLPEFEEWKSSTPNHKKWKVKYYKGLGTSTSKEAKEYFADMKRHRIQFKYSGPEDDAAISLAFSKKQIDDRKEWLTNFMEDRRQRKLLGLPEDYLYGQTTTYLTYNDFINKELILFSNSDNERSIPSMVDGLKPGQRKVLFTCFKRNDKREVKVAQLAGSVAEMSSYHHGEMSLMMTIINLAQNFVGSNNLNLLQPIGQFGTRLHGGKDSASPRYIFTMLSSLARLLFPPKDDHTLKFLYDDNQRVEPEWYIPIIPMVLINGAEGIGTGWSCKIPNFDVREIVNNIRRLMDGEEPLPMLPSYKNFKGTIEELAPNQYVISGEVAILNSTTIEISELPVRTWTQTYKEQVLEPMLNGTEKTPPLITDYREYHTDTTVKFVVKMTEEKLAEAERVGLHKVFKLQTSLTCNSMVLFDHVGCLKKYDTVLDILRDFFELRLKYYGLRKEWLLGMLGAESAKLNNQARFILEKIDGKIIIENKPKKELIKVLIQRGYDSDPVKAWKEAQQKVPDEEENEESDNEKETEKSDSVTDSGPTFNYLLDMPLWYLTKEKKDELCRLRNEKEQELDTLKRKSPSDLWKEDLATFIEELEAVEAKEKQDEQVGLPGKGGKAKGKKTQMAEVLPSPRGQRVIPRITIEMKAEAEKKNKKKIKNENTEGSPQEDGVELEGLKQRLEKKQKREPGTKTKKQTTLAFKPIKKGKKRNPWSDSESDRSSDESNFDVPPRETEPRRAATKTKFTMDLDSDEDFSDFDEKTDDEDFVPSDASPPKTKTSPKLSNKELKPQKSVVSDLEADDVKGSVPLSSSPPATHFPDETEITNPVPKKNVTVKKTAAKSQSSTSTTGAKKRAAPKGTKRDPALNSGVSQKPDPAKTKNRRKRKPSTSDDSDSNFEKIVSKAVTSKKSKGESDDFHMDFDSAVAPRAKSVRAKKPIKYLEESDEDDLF

B1: 5ZRF DNA oligo (IRDye700) (dsDNA)
DNA 1: AGCCGAGCTGCAGCTCGGCT
DNA 2: AGCCGAGCTGCAGCTCGGCT
binds: all assays above
